{"source": "paper PMC6540616", "test_in_all_cases": "DHFR protein complementation assay (yeast growth)", "conditions_in_all_cases": "MTX-containing media relative to MTX-free media; read off a plot", "key": {"[1]": {"biological_target": "caskin1 SAM fused to DHFR F3 (UniProt Q6P9K8)", "sequence (Q6P9K8 344-636)": "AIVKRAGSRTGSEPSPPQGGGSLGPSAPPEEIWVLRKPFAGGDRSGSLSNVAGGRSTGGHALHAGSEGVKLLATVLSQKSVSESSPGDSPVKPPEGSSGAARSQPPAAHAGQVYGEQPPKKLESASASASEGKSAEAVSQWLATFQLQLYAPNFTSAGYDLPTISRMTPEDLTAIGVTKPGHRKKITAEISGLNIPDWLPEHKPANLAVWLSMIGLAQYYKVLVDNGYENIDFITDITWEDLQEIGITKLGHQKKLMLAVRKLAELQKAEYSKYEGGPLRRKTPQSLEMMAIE"}, "[2]": {"biological_target": "PTPσ full-length (FL) fused to DHFR F1-2, wild type"}, "[3]": {"biological_target": "trio IgPSK fused to DHFR F3"}}, "data": [{"substance": "PTPσ full-length (FL) fused to DHFR F1-2, wild type EGFID", "values": [{"measurement": "other: interaction score", "setting": "[1]", "value": -0.11}]}, {"substance": "PTPσ full-length (FL) fused to DHFR F1-2, wild type QFG", "values": [{"measurement": "other: interaction score", "setting": "[2]", "value": 0.8}]}, {"substance": "PTPσ intracellular region (ICR) fused to DHFR F1-2, wild type EGFID", "values": [{"measurement": "other: interaction score", "setting": "[3]", "value": 0.93}]}]}
